Measurements reported in the nanobody polyreactivity screen of Harvey et al. (2022).

Experiment: yeast display, Sf9 membrane polyspecificity reagent, FACS + sequencing; frameworks hold sequencing errors
In short: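 Galactose-induced (36–48 hours) yeast carrying a synthetic nanobody display library were exposed to 10% biotinylated, detergent-solubilized Sf9 membrane reagent at 4 °C for 1 hour. FACS followed streptavidin microbead enrichment, using low and high (top ~1%) gates for expression (anti-HA) and reagent binding (streptavidin). Colony PCR, MiSeq 2 × 250 sequencing and CDR-length filtering followed. Labels for polyreactivity reflect the gate of origin.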

QVQLVESGGGLVQAGGSLRLTCAASGTIFYYNAMRWYRQAPGKERELVAAISWSGSRTYYADSVKGRFTISRDNAKITVYLQMNSLKPEDTAVYYCAAVVRFPFTYDYWGQGTQVTVSS
polyreactivity (PSR sort gate): high polyreactivity

QVQLVESVGGLVQAGGSLRLSCAASGRTFWWNAMGWYRQAPGKEREFVAAIRSTGGRTYYADSVKGRFTISRDNAKNTVYLQMNSLKPEDTAVYYCAAYTLDPYGFLYEYWGQGTQVTVSS
polyreactivity (PSR sort gate): high polyreactivity

QVQLVESGGGLVQAGGSLRLICAASGRSFTSNAMGWYRQAAGKEWELVAAINFRGDSTYYADSVKGRFTISRDNAKNTVYLQMNSLKREDTAVYYCAAVGGRSSYRLDYWGQGTQVTVSS
polyreactivity (PSR sort gate): low polyreactivity

QVQLVESGGGLVQAGGSLRLSCADSGSTFRRKVMGWYRQAPGKERELVASIRSGGTTNYADSVKGRFTISRDNAKNTVYLQMNSLKPEDTAVYYCAAARSRGYYRASAEVLYGYWGQGTQVTVSS
polyreactivity (PSR sort gate): high polyreactivity

QVQLVESGGGLVQAGGSLRLSCAASGRIFRVYAMGWYRQAPGKERELVAAISSRGGRTYYADSVKGRFTISRDNAKNTVYLQMNSLKPEDTAVYYCAADGRSSSRATSRYDYWGQGTQVTVSS
polyreactivity (PSR sort gate): high polyreactivity

QVQLVESGGGLVQAVGSLRLSCAASGFIFGTYAMGWYRQAPGKERELVAVITRGGTTYYADSVKGRFTISRDNAKNTVYLQMNSLKPEDTAVYYCAADPWALFVGDEYYYWGQGTQVTVSS
polyreactivity (PSR sort gate): low polyreactivity

QVQLVESGGGLVQAGGSLRLSCAASGITFYLNAMVWYRQAPGKERELVADITVSGGSTYYADSVKGRFTISRDYAKNTVYLQMNRLKPEDTAVYYCAADLTISYSQEYYYWGQGTQVTVSS
polyreactivity (PSR sort gate): low polyreactivity

QVQHVESGGGLVQAGGSLRLSCAASGSIIPSNVMGWYRQATGKEREFVAGITFRVGSTYYADSVKGRFTISLDNAKNTVYLQMNSLKPEDTAVYYCAALIRAVDRYTYRYGYWGQGTQVTVSS
polyreactivity (PSR sort gate): high polyreactivity

QVQLVESGGGLVQAGGSLRLSCAASGFTFSYYGMVWYRQAPWKERELVAGISRGGSTYYADSVKGRFTISRDNAKNTVYLQMNSLKPEDTAVYYCAAAERLRHGLKFDYWGQGTQVTVSS
polyreactivity (PSR sort gate): high polyreactivity

QVQLVESGGGLVQAGGSLRLSCAASGLTFAFNAMGWYRPAPGKERELVAAISKSGGSTYYADSVKGRFTISRDNAKNTVYLQMNSLKPEDTAVYYCAAGFWYYSYPTLYEYGYWGQGTQVTVSS
polyreactivity (PSR sort gate): low polyreactivity

QVQLVESGGGLVQAGGTLRLSCAASGIIFVWNAMGWYRQAPGKERELVAAITNGGSTYYADSVKGRFTISRDNAKNTVYLQMNSLKPEDTAVYYCNVRYFFRFRDDYWGQGTQVTVSS
polyreactivity (PSR sort gate): low polyreactivity

QVQLVESGGGLVQAGGSLRLSCAASGFTFFRNAMGWYRQAPGKEMELVAAISGSGGSTYYADSVKGRFTISRDNAKNTVYLQINSLKPEDTAVYYCATYSYPAKVPEAYNYWGQGSQVTVSS
polyreactivity (PSR sort gate): low polyreactivity

QVQLVESVGGLVQAGGSLRLSCAASGRTFFYNAMGWYRQAPAKERELVAAIDWSGDSTYYADSVKGRFTISRDNAKNTVYLQMNSLKPEDTAVYYCAARRKNRRDYDYYYWGQGTQVTVSS
polyreactivity (PSR sort gate): high polyreactivity

QVQLVESGGGLVQAGGSLRLSCAASGLTFRVYAMGWYRQAPGKERELVASISRTGSTTYADSVKGRFTISRDNAKNTVYLQMNSLKPEDTAVYYCNARYYVLLWDSLAREYWGQGTQVTVSS
polyreactivity (PSR sort gate): high polyreactivity

QVQLVESGGGLVQAGGSLRLSCAASGSIFTGYTMGRYRQATGKERELVAAITWNGGSTYYADSVKGRFTISRDNAKNTVYLQMNSLKPEDTAVYYCAAVPYTPSPYTYGYWGQGTQVTVSS
polyreactivity (PSR sort gate): high polyreactivity

QVQLVESGGGLVQAGGSLRLSCAAYGSNYSTYTMGWYRTAAGKERQLVAAITRSGGSTYYADSVKGRFTISRDNAKKTDYLQMNSLKPEDTAVFYCAARGQAYSGDRMYYWGLGTQVTVSS
polyreactivity (PSR sort gate): high polyreactivity

QVQLVESGGGLVQAGGSLRLSCDASGRIYLYAMGWYRQAPGKERELVAAITTRAGRTYYADSVKGRFTISRDNAKNTVYFQMNSLKPEDNAVSYCAADGTRYPAYGYWGQGTQVTVSS
polyreactivity (PSR sort gate): low polyreactivity

QVQLVESGGGLVQAGGSLRLSCAASGSTFYDYAMGWYRQAPGKERELVAAINGNGDSTYYADSVKGRFTISRDNAKNTVYLQMNSLKPEDTAVYYCAASGYRRYYGYDYWGQGTQVTVSS
polyreactivity (PSR sort gate): low polyreactivity

QVQLVESGGGLVQAGGSLRLSCAASGGIFGYYAMGWYRQAPGKERELVAAINYSGGSTYYADSVKGRFTISRDNAKNTVYLQMNSLKPEDTAVYYCNAVVRDYTFRYYYWGQGTQVTVSS
polyreactivity (PSR sort gate): low polyreactivity

QVQLQERAGGLVQAGGSLRQRCSASGYISCDASMGWYRQAPGKERELAASITKGSSTKYADIVKGRFTFRDNAKNTVYLKMNSLKPEDTAVCYCAVTYPYWGDYTYWGQGTQVTVSS
polyreactivity (PSR sort gate): low polyreactivity

QVQLVESGGGLVQAGGSLRLSCAASGRIFHNYAMGWYRQAPGKERELVAAISSSGGRTTYADSVKGRFTISRDYAKNTVYLQMNSLKPEDTAVDYCAKRYPHIGDYWGEGTQVTVSS
polyreactivity (PSR sort gate): high polyreactivity

QVQLVESGGGLVQAGGSLRLSCAASGSTFAGYVMGWYRQAPGKERELVASKSWSGGSTYYADSVKGRFTISRDNAKNTVNLQMNSLKPEETAVYYSNTRRYERTDSAYPDHDYPGYYWGQATQVTVSS
polyreactivity (PSR sort gate): low polyreactivity

QVQLVDSGGGLVQAGGSLRLSCAASGSIFLGYAMGWYRQAPGKVREFVAAITWSGGSTYYADSVKGRFTISRDIAKNTVYLQMNSLKQEDTAVYYCAVEIWIPTWYGLSGEYDYWGQGTQVTVSS
polyreactivity (PSR sort gate): low polyreactivity

QVQLVESGGGLVQAGGSLRLSCAASGLIFLYYAMGWYRQAPGKERELVAAISRRGGSTYYADSVKGRFTISRDNAKNTVYLQMNSLKPEDTAVDYCAANYESYPRGIWTYYYWGQGTQVTVSS
polyreactivity (PSR sort gate): high polyreactivity

QVHLVESGGGLVQAGGSLRLSCAASGRIFYGYAMGWYRQAPGKEREFVAAITVSAGSTYYADSVKGRFTISRDNAKNTVYLQMNSLKPEDTAVYYCAGENGSKEFDYWGQGTQVTVSS
polyreactivity (PSR sort gate): low polyreactivity

QVQLVESGGGLVQAGGSLRLSCAASVRTFEPNAMGWYRQAPGKERELVAAISSSDGSTYYADSVKGRFTISRDNAKNTVYLQMNSLKPEDTAVYYCAADAGYLYDWPYNYYYWGQGTQVTVSS
polyreactivity (PSR sort gate): low polyreactivity

QVQLVESGGGLVQAGGSLRLSCAASGYIFIVNAMGSYRQAPGKERELVAAITDRGGSTYYADSVKGRFTISRDNAKNTVYLQMNSLKPEVTAVYYCAAELVHRLWYRDVHFDYWGQGTQVTVSS
polyreactivity (PSR sort gate): low polyreactivity

QVQLVESGGGLVQAGGSLRLSCAASGITFYYNAMGWYRQAPGKERELVAAISDGSSTNYADSVKGRFTISRDTAKNTVYLQMNSLKPEDTAVYYCNADLVLFPLTWPYYYWGQGTQVTVSS
polyreactivity (PSR sort gate): low polyreactivity

QVQLVESGGGLVQAGGSLRLSCAASGIIFLSYAMGWYRQAPGKERELVATITRSGGSTYYADSVEGRFTISRDNAKNTVYLQMNSLKPEDTAVYYCARYWRTSGVRMDYWGQGTQVTVSS
polyreactivity (PSR sort gate): high polyreactivity

QVQLVESGGGLVQAGGSLRLSCAASGLIFYDNMGWSRQAPGKERELVAAISSSGGSTSYADSVKGRFTISRDNAKNTVYLQMNSLKPADTAVYYCAADSYPAYLGFVGFDYWGQGTQVTVSS
polyreactivity (PSR sort gate): low polyreactivity

QVQLVESGGGLVQAGGSLRLSCAASGSTSVYYAMGWYRQTPGKERELVAAITWDDGSTSYADSVKGRFTISRDNAKNTVYLQMNSLKPEDTAVYYCAKDYEYLGAFNYWGQGTQVTVSS
polyreactivity (PSR sort gate): low polyreactivity

QVQLVESGGGLVHAGGSLRLSCAASGRIFLYYVMGWYRQAPGKERELVAAITSGGSTYYADSVKGRFTISRDNAKNTVYLQMNSLKPEDTAVYYCNKVSYYRNEYWGQGTQVTVSS
polyreactivity (PSR sort gate): high polyreactivity

QVQLVESGGGLVQAGGSLRLSCAASGFTFWQYAMGWYRQAPGKERELVAAITSSGTSTNYADSVKGRFTISGDNAKKTVYLQMNSLKPEETAVYYCAADLGYYDLYYWGQGTQVTVSS
polyreactivity (PSR sort gate): low polyreactivity

QVQLVESGGGLVQAGGSLRLSSAASGRIFYGYAMGWSRQAPGKERELVAAITRSSSTYFADSVKGRFTISRDNAKNTVYLQMNSLKPEDTAVYDCAVYRLSWIGSVQYEYWGQGTQVTVSS
polyreactivity (PSR sort gate): high polyreactivity

QVQLVESGGGLVQAGGRLRLSCAASGSIFLHNAMGWYRQAPGKERELVAAISGTGGRTYYADSVKGRFTISRDNAKNTVYLQMNSLKPEDTAVYYCAVVFYHRHSYYWGQGTQVTVSS
polyreactivity (PSR sort gate): high polyreactivity

QVQLVESGGGLVQAGGSLRLSCAASGRIFPSYAMGWYRQAPGKERELVATISSGGRTYYADSVKGRFTISRDNAKNTVYLQMNSLKPEDTEVYYCNADRTQDRNPYTYATFDYWGQGTQVTVSS
polyreactivity (PSR sort gate): low polyreactivity

QVQLVESGGGLVQAGGSLRLSCAASGSTFYTNPMGWYRQAPGKEREFVAAISGSGSSTYADSVKGRFTISRDNAKNTVYLQMNSLKPEDTAVYYCAADWFILRTDYYWGQGTQVTVSS
polyreactivity (PSR sort gate): low polyreactivity

QVQLVESGGGLVQAGGSLRLSCAASGSIYYYAMGWYRQAPGKEMELVAAITRSGGGTYYADSVKGRFTISRDNAKNTVYLQMNSLKPEDTAVYYCAAARYSRAQPNWTYNYWGQGTQVTVSS
polyreactivity (PSR sort gate): high polyreactivity

QVQLVESGGGLVQAGGSLRLSCAASGSTFGGYAMGWNRQAPGKEREWVAAISQSGTRTYYADSVKGRFTISRDNAKNTVYLQMNSLKPEDTAVYYCAAVKRFRKYDYWGQGTQVTVSS
polyreactivity (PSR sort gate): high polyreactivity

QVQLVESGGGLVQAGGSLRLSCAASGFTFYTYVMGWYRQAPGKERELVAAITSGVSTNYADSVKGRFTISRDNAKNTVYLQMNSVKPEDTAVYYCAAGYPSWYYGYPYDSWGQGTQVTVSS
polyreactivity (PSR sort gate): low polyreactivity

QVQLVESGGGLVQAGGSLRLSCAASGITFNGYAMGWYRQAPGKERELVAAISSSGGRTRYADSVKGRFTISRDNAKNTVYLQMNSLKPEDTAVYYCNARGYGQSNYWGQGTQVTVSS
polyreactivity (PSR sort gate): high polyreactivity

QVQLVESGGGLVQAGGSLRLSCAASGSTFTVNDMGWYRQAPGKERELVAAITQRDGRTFYADSVKGRFTISRDNAKNTVYLQMNSLKPEDTAVYYCAATFIQVVVNVQLYDYDYWGQGTQVTVSS
polyreactivity (PSR sort gate): low polyreactivity

QVQLLESGGGLVQAGRSLRLSCAASGSIFWYAMGWYRQAPGKERELVATITSGASTTYADSVKGRFTISRDNAKNTVYLQMNSLNPEDTAVYYCAKRNYLSYRYDYWGQGTQVNVSS
polyreactivity (PSR sort gate): low polyreactivity
